Measured values as given in the MegaScale stability set (Tsuboyama et al. 2023).

B1: 2M8U (parent)
chain: TKAQVIEAFKVFDRDGNGYVTVDYLRKVLNELGDMMPADEIEEMIYEADPQNSGYVQYETFVGMLFL

Variants of: B1
Test: folding stability dG (cDNA display proteolysis); higher = more stable
Details: PBS, room temperature

Row | Variant | folding stability dG
1 | TKAQVIEAFKVFDWDGNGYVTVDYLRKVLNELGDMMPADEIEEMIYEADPQNSGYVQYETFVGMLFL | 3.32 kcal/mol
2 | TKAQVIEAFKVFDRIGNGYVTVDYLRKVLNELGDMMPADEIEEMIYEADPQNSGYVQYETFVGMLFL | 3.02 kcal/mol
3 | TKAQVIEAFKVFDRCGNGYVTVDYLRKVLNELGDMMPADEIEEMIYEADPQNSGYVQYETFVGMLFL | 2.9 kcal/mol
4 | TKAQVIEAFKVFDRLGNGYVTVDYLRKVLNELGDMMPADEIEEMIYEADPQNSGYVQYETFVGMLFL | 3.17 kcal/mol
5 | TKAQVIEAFKVFDRSGNGYVTVDYLRKVLNELGDMMPADEIEEMIYEADPQNSGYVQYETFVGMLFL | 2.84 kcal/mol
6 | TKAQVIEAFKVFDRAGNGYVTVDYLRKVLNELGDMMPADEIEEMIYEADPQNSGYVQYETFVGMLFL | 3.13 kcal/mol
7 | TKAQVIEAFKVFDRDGNGYVTVDYLRKVLNELGDMMPADEIEEMIYEADPQNAGYVQYETFVGMLFL | 3.19 kcal/mol
8 | TKAQVIEAFKVFDRDGNGYVTVDYLRKVLNELGDMMPADEIEEMIYEADPINSGYVQYETFVGMLFL | 3.31 kcal/mol
9 | TKAQVIEAFKVFDRDGNGYVTVDYLRKVLNELGDMMPADEIEEMIYEADPRNSGYVQYETFVGMLFL | 3.3 kcal/mol
10 | TKAQVIEAFKVFDRDGNGYVTVDYLRKVLNELGDMMPADEPEEMIYEADPQNSGYVQYETFVGMLFL | 1.98 kcal/mol
11 | TKAQVIEAFKVFDRDGNGYVTVDYLRKVLNELGDMMPADEIEEMIYSADPQNSGYVQYETFVGMLFL | 3.71 kcal/mol
12 | TKAQVIEAFKVFDRDGNGYVTVDYLRKVLNELGDMMPADEIEEMIYFADPQNSGYVQYETFVGMLFL | 3.75 kcal/mol
13 | TKAQVIAAFKVFDRDGNGYVTVDYLRKVLNELGDMMPADEIEEMIYEADPQNSGYVQYETFVGMLFL | 3.46 kcal/mol
14 | TKAQVISAFKVFDRDGNGYVTVDYLRKVLNELGDMMPADEIEEMIYEADPQNSGYVQYETFVGMLFL | 2.76 kcal/mol
15 | TKAQVIEAFKVFDRDGNGYVTVDYLRKVLNELGDMMPADEIEEMIYEADPQNSGYVQYETTVGMLFL | 1.87 kcal/mol
16 | TKAQVIEAFKVFDRDGNGYVTVDYLRKVLNELGDMMPADEIEEMIYEADPQNSGYVQYETWVGMLFL | 2.62 kcal/mol
17 | TKAQVIEAFKVFDRDGNGYVTVDYLRKVLNELGDMMPADEIEEMIYEADPQNSGYVQYETCVGMLFL | 2.13 kcal/mol
18 | TKAQVIEAFKVFDRDGNGYVTVDYLRKVLNELGDMMPDDEIEEMIYEADPQNSGYVQYETFVGMLFL | 3.32 kcal/mol
19 | TKAQVIEAFKVFDRDGNGYVTVDYLRKVLNELGDMMPADEIEEMIYEADPQFSGYVQYETFVGMLFL | 3.52 kcal/mol
20 | TKAQVIEAFKVFDRDGNGYVTVDYLRKVLNELGDMMPADEIEEMIYEADPQRSGYVQYETFVGMLFL | 3.57 kcal/mol
21 | TKAQVIEAFKVFDRDGNGYVTVDYLRKVLNELGDMMPADEIEEMIYEADPQKSGYVQYETFVGMLFL | 3.4 kcal/mol
22 | TKAQVIEAFKVFDRDGNGWVTVDYLRKVLNELGDMMPADEIEEMIYEADPQNSGYVQYETFVGMLFL | 3.21 kcal/mol
23 | TKAQVIEAFKVFDRDGNGGVTVDYLRKVLNELGDMMPADEIEEMIYEADPQNSGYVQYETFVGMLFL | 1.95 kcal/mol
24 | TKAQVIEAFKVFDRDGNGLVTVDYLRKVLNELGDMMPADEIEEMIYEADPQNSGYVQYETFVGMLFL | 3.26 kcal/mol
25 | TKATVIEAFKVFDRDGNGYVTVDYLRKVLNELGDMMPADEIEEMIYEADPQNSGYVQYETFVGMLFL | 3.04 kcal/mol
26 | TKAQVIEAFKVFDRDGNGYVTVDYLRKVLNELGDWMPADEIEEMIYEADPQNSGYVQYETFVGMLFL | 3.6 kcal/mol
27 | TKAQVIEAFKVFDRDGNGYVTVDYLRKVLNELGDLMPADEIEEMIYEADPQNSGYVQYETFVGMLFL | 3.68 kcal/mol

Row | Variant | folding stability dG
28 | TKAQVIEAFKVFDRDGNGYVTVDYLRKVLNELGDMMPADYIEEMIYEADPQNSGYVQYETFVGMLFL | 4.06 kcal/mol
29 | TKAQVIEAFKVFDRDGNGYVTVDYLRKVLNELGDMMPADEIEEMIYEADPQNSGYVQYETFVGMLFV | 3.28 kcal/mol
30 | TKAQVIEAFKVFDRDGNGYVTVDYLRKVLNELGDMMPADEIEEMIYEADPQNSGYVQYETFVGFLFL | 3.34 kcal/mol
31 | TKAQVIEAFKVFDRDGNGYVTVDYLRKVLNELGDMMPADEIEEMIYEADPQNSGYVQYETFVGVLFL | 3.03 kcal/mol
32 | TKAQVIEAFKVFDRDGNGYVFVDYLRKVLNELGDMMPADEIEEMIYEADPQNSGYVQYETFVGMLFL | 3.29 kcal/mol
33 | TKAQVIEAFKVFDRDGNGYVAVDYLRKVLNELGDMMPADEIEEMIYEADPQNSGYVQYETFVGMLFL | 3.65 kcal/mol
34 | TKAQVIEAFKVFDRDGNGYVHVDYLRKVLNELGDMMPADEIEEMIYEADPQNSGYVQYETFVGMLFL | 4.14 kcal/mol
35 | TKAQVIEAFKVFDRDGNGYVYVDYLRKVLNELGDMMPADEIEEMIYEADPQNSGYVQYETFVGMLFL | 3.38 kcal/mol
36 | TKAQVIEAFKVFDRDGNGYVTVDYLRKVLNELGDMMPADEIEEMITEADPQNSGYVQYETFVGMLFL | 3.62 kcal/mol
37 | TKAQVIEAFKVFDRDGNGYVTVDYLRKVLNELGDMMPADEIEEMIQEADPQNSGYVQYETFVGMLFL | 3.66 kcal/mol
38 | TKAQVIEAFKVFDRDGNGYVTVDYLRKYLNELGDMMPADEIEEMIYEADPQNSGYVQYETFVGMLFL | 2.78 kcal/mol
39 | TKAQVIEAFKVFDRDGNGYVTVDYLRKRLNELGDMMPADEIEEMIYEADPQNSGYVQYETFVGMLFL | 2.41 kcal/mol
40 | TKAQVIEAFKVFDRDGNGYVTVDYLSKVLNELGDMMPADEIEEMIYEADPQNSGYVQYETFVGMLFL | 2.42 kcal/mol
41 | TKAQVIEAFKVFDRDGNGYCTVDYLRKVLNELGDMMPADEIEEMIYEADPQNSGYVQYETFVGMLFL | 3.04 kcal/mol
42 | TKAQVIEAFKVFDRDGNGYVTVDYLRKVLNELGDMMPADEIEEMIYEADPQNSKYVQYETFVGMLFL | 2.47 kcal/mol
43 | TKAQVIEAFKVFDRDGNGYVTVDYLRKVLNELGDMMPADEIEEMIYEADPQNSGYVQYEWFVGMLFL | 3.58 kcal/mol
44 | TKAQVIEAFKVFDRDGNGYVTVDYLRKVLNELGDMRPADEIEEMIYEADPQNSGYVQYETFVGMLFL | 3.6 kcal/mol
45 | TKAQVIEAFKVFDRDGNGYVTVDYLRKVLNELGDMTPADEIEEMIYEADPQNSGYVQYETFVGMLFL | 3.65 kcal/mol
46 | TKAQVIEAFKVFDRDGNGYVTVDYLRKVLNELGDMMPADEIEEKIYEADPQNSGYVQYETFVGMLFL | 3.56 kcal/mol
47 | TKAQVIEAFKVFDRDGNGYVTQDYLRKVLNELGDMMPADEIEEMIYEADPQNSGYVQYETFVGMLFL | 2.95 kcal/mol
48 | TKAQVIEAFKVFDRDGNGYVTVDYLRKVLNELPDMMPADEIEEMIYEADPQNSGYVQYETFVGMLFL | 3.54 kcal/mol
49 | TKAQVIEAFKVFDRDGNGYVTVDYLRKVLNELNDMMPADEIEEMIYEADPQNSGYVQYETFVGMLFL | 3.18 kcal/mol
50 | TKAQVIEAFKVFDRDGNGYVTVDYLRKVLNELADMMPADEIEEMIYEADPQNSGYVQYETFVGMLFL | 3.79 kcal/mol
51 | TKAQVIEAFKVFDRDGNGYVTVDYLRKVLNELGDMMPADEIEEMIYECDPQNSGYVQYETFVGMLFL | 3.84 kcal/mol
52 | TKAQVIEAFKVFDRDGNGYVTVDYLRKVLNELGDMMPAAEIEEMIYEADPQNSGYVQYETFVGMLFL | 3.7 kcal/mol
53 | TKAQVIEAFKVFDRDGNGYVTVDYLRKVLNELGDMMPAPEIEEMIYEADPQNSGYVQYETFVGMLFL | 3.68 kcal/mol
54 | TKAQVIEAFKVFDRDGNGYVTVDYLRKVLNELGDMMPASEIEEMIYEADPQNSGYVQYETFVGMLFL | 3.52 kcal/mol

Row | Variant | folding stability dG
55 | TKAQVIEAFKVFDRDGNGYVTVDYKRKVLNELGDMMPADEIEEMIYEADPQNSGYVQYETFVGMLFL | 2.23 kcal/mol
56 | TKAQVIEAFKVFIRDGNGYVTVDYLRKVLNELGDMMPADEIEEMIYEADPQNSGYVQYETFVGMLFL | 2.4 kcal/mol
57 | TKAQVIEAFKVFQRDGNGYVTVDYLRKVLNELGDMMPADEIEEMIYEADPQNSGYVQYETFVGMLFL | 1.87 kcal/mol
58 | TKAQVIEAFKVFDRDGNGYVTVDYLRKVLNHLGDMMPADEIEEMIYEADPQNSGYVQYETFVGMLFL | 3.45 kcal/mol
59 | TKAQVIEAFKVFDRDGNGYVTVDYLRKVLNFLGDMMPADEIEEMIYEADPQNSGYVQYETFVGMLFL | 3.53 kcal/mol
60 | TKAQVIEAVKVFDRDGNGYVTVDYLRKVLNELGDMMPADEIEEMIYEADPQNSGYVQYETFVGMLFL | 3.27 kcal/mol
61 | TKAQVIEAFKVFDRDGNGYVTVDYLRKVLNELGDMMFADEIEEMIYEADPQNSGYVQYETFVGMLFL | 3.57 kcal/mol
62 | TKAQVIEAFKVFDRDGNGYVTVDYLRKVLNELGIMMPADEIEEMIYEADPQNSGYVQYETFVGMLFL | 4.72 kcal/mol
63 | TKAQVIEAFKVFDRDGNGYVTVDYLRKVLNELGDMMPADEIEEMIYEADPQNSGYVQYETFVGMLVL | 2.84 kcal/mol
64 | TKAQVIEAFKVFDRDGNGYVTVDYLRKVLNELGDMMPADEIEEMIYEADPQNSGYVQYETFVGMLPL | 2.87 kcal/mol
65 | TKAQVIEAFKVFDRDGNGYVTVDYLRKVQNELGDMMPADEIEEMIYEADPQNSGYVQYETFVGMLFL | 1.4 kcal/mol
66 | TKAQVIEAFKVFDRDGNGYVTVDYLRKVVNELGDMMPADEIEEMIYEADPQNSGYVQYETFVGMLFL | 3.28 kcal/mol
67 | TKAQVIEAFKVFDRDGNGYVTVDYLRKVPNELGDMMPADEIEEMIYEADPQNSGYVQYETFVGMLFL | 1.19 kcal/mol
68 | TKAQVIEAFKVWDRDGNGYVTVDYLRKVLNELGDMMPADEIEEMIYEADPQNSGYVQYETFVGMLFL | 3.32 kcal/mol
69 | TKAQVIEAFKVNDRDGNGYVTVDYLRKVLNELGDMMPADEIEEMIYEADPQNSGYVQYETFVGMLFL | 3.06 kcal/mol
70 | TKAQVIEAFKVSDRDGNGYVTVDYLRKVLNELGDMMPADEIEEMIYEADPQNSGYVQYETFVGMLFL | 2.68 kcal/mol
71 | TKAQVIEAFKTFDRDGNGYVTVDYLRKVLNELGDMMPADEIEEMIYEADPQNSGYVQYETFVGMLFL | 3.35 kcal/mol
72 | TKAQVIEAFKDFDRDGNGYVTVDYLRKVLNELGDMMPADEIEEMIYEADPQNSGYVQYETFVGMLFL | 3.13 kcal/mol
73 | TKAQVIEAFKVFDRDGNGYVTVLYLRKVLNELGDMMPADEIEEMIYEADPQNSGYVQYETFVGMLFL | 3.63 kcal/mol
74 | TKAQVIEAFKVFDRDGNGYVTVDYLRKVLNELGDMMPADEIEEMIYEADPQNSGYVQYETFVKMLFL | 3.45 kcal/mol
75 | TKAQVIEAFKVFDRDGNGYVTVDYLRKVLWELGDMMPADEIEEMIYEADPQNSGYVQYETFVGMLFL | 3.71 kcal/mol
76 | TKAQVIEAFKVFDRDGNGYVTVDYLRKVLDELGDMMPADEIEEMIYEADPQNSGYVQYETFVGMLFL | 3.72 kcal/mol
77 | TKAQVIEAFKVFDRDGNGYVTVDYLRKVLQELGDMMPADEIEEMIYEADPQNSGYVQYETFVGMLFL | 3.4 kcal/mol
78 | TKAQHIEAFKVFDRDGNGYVTVDYLRKVLNELGDMMPADEIEEMIYEADPQNSGYVQYETFVGMLFL | 2.36 kcal/mol
79 | TKAQQIEAFKVFDRDGNGYVTVDYLRKVLNELGDMMPADEIEEMIYEADPQNSGYVQYETFVGMLFL | 2.09 kcal/mol
80 | TKAQGIEAFKVFDRDGNGYVTVDYLRKVLNELGDMMPADEIEEMIYEADPQNSGYVQYETFVGMLFL | 1.89 kcal/mol
